From patent US20040224408A1, “THAP proteins as nuclear receptors for chemokines and roles in transcriptional regulation, cell proliferation and cell differentiation” (published 2004)

T1: THAP1 THAP domain (Homo sapiens, UniProt Q9NVV9 SEQ:1-90)
T1 sequence: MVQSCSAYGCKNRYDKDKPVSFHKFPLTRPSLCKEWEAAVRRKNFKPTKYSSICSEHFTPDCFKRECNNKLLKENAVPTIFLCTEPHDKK

T2: human chemokine SLC/CCL21, mature form (amino acids 24-134) (human, UniProt O00585 24-134)
T2 construct: also called SLC/6Ckine; SLC/CCL21 wild type
T2 sequence: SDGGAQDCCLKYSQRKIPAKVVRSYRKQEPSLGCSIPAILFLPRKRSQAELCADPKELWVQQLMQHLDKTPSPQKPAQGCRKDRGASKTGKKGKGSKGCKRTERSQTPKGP

T3: human THAP1 (THanatos (death)-Associated Protein-1), full length (human, UniProt Q9NVV9 1-213)
T3 construct: also called hTHAP1; FLJ10477
T3 sequence: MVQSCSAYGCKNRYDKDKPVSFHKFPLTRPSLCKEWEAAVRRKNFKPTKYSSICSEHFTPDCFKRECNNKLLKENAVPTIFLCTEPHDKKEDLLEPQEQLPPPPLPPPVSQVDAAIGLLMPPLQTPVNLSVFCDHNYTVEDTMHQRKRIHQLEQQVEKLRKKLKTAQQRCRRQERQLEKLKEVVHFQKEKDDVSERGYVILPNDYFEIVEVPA


Assays:
[1] = target: T4, Glutathione S-transferase (GST) control protein (pGEX-2T) (UniProt P08515 1-218 = GST); assay: GST pull-down, immobilized GST control, in vitro translated 35S-labelled chemokine
T4 construct: Negative control immobilized on glutathione sepharose; also called GST beads; immobilized GST alone
T4 sequence (P08515 whole entry): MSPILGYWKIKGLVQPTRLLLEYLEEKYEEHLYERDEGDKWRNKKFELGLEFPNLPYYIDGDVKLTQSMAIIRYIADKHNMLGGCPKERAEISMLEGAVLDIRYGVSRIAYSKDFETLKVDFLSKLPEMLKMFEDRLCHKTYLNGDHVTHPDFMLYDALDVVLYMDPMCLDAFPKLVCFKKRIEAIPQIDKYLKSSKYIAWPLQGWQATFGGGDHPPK
Method: To confirm the interaction observed in yeast two-hybrid system, we performed in vitro GST pull down assays. THAP1, expressed as a GST-tagged fusion protein and immobilized on glutathione sepharose, was incubated with radiolabeled chemokines that were translated in vitro.
In vitro-translated chemokines were generated with the TNT-coupled reticulocyte lysate system (Promega, Madison, Wis., USA) using as templates pGBKT7-CCL21, -CCL19, -CXCL9, -CXCL10 and CXCL11 chemokine vectors (see Example 32) or pCMV-SPORT6-CCL5 plasmid (Image clone No. 4185200). In vitro-translated IFNγ cytokine was generated similarly using as template plasmid pGBKT7-IFNγ. A 25 μvolume of ³⁵S-labelled chemokine was incubated with immobilized GST-THAP1 or GST proteins overnight at 4° C., in the following binding buffer: 10 mM NaPO4 pH 8.0, 140 mM NaCl, 3 mM MgCl₂, 1 mM dithiothreitol (DTT), 0.05% NP40, and 0.2 mM phenylmethyl sulphonyl fluoride (PMSF), 1 mM Na vanadate, 50 mM β-glycerophosphate, 25 μg/ml chymotrypsine, 5 μg/ml aprotinin, and 10 μg/ml leupeptin. Beads were then washed 5 times in 1 ml binding buffer. Bound proteins were eluted with 2×Laemmli SDS-PAGE sample buffer, fractionated by 10% SDS-PAGE and visualized by fluorography using Amplify (Amersham Pharmacia Biotech). GST/THAP1 specifically bound to chemokines CCL21, CCL19, CCL5, CXCL9, CXCL10 and CXCL11 but not cytokine IFNγ (FIGS. 19 and 20). […] CXCL10 also bound to immobilized GST-THAP1 (indicated by ++ in the column labelled “In vitro binding to GST-THAP1”).

[2] = target: T1, THAP1 THAP domain; assay: EMSA; 20 mM Tris-HCl pH 7.5, 100 mM KCl, room temperature; conditions: tags: C-terminal His6 (pET-21c); label: 32P
Method: To confirm that the THAP domain is a novel sequence specific DNA-binding domain, electrophoretic mobility shift assays (EMSA) were carried out using wild-type or mutant THAP domain responsive elements (THRE) determined by SELEX (see Example 28 and FIGS. 18 and 24). Double-stranded probes used in EMSA experiments were purified on 12% polyacrylamide gels, ³²P end labeled with T4 polynucleotide kinase and quantified by Cerenkov counting. About 20 ng of purified THAP domain from human THAP1 (prepared as described in Example 28) was incubated with 30000 cpm of the appropriate probe (about 2 ng). Binding reactions were carried out for 10 minutes at room temperature in 20 μl binding buffer (20 mM Tris-HCl pH 7.5, 100 mM KCl, 0.1% NP-40, 100 μg/ml BSA, 2.5 mM DTT, 5% glycerol, 200 ng poly (dI-dC)). Electrophoresis was performed on 8% (29:1) polyacrylamide gels containing 5% glycerol. Gels were run in 0.25×TBE at 150V and 4° C., dried and exposed on a phosphoimager screen (Molecular Dynamics). Sequences of wild type and mutant THRE oligonucleotides used in EMSA experiments were as follow (mutations are indicated in bold): wild-type probe 3, 5′-[…]-3′ (SEQ ID NO: 313); mutant probe 3mut1, 5′-[…]-3′ (SEQ ID NO: 314); mutant probe 3mut3, 5′-[…]-3′ (SEQ ID NO: 319); mutant probe 3mut4, 5′-[…]-3′ (SEQ ID NO: 320); mutant probe 3mut14, 5′-[…]-3′ (SEQ ID NO: 321); mutant probe 3mut5, 5′-[…]-3′ (SEQ ID NO: 322).
For competition experiments, 50-, 150-, and 250-fold molar excess of unlabelled wild-type (THRE competitor, probe 3) or mutant (non-specific competitor, probe 3mut1) THRE oligonucleotides were added to the reaction mixture just before the addition of the probe.

[3] = target: T2, human chemokine SLC/CCL21, mature form …; assay: yeast two-hybrid, pGADT7-THAP1 mutant with pGBKT7-SLC/CCL21
Method: Two-hybrid interaction between THAP1 mutants and chemokine SLC/CCL21 was tested by cotransformation of AH109 with pGADT7-THAP1-C1, -C2, -C3, -N1, -N2 or -N3 and pGBKT7-SLC/CCL21 and selection of transformants by His and Ade double auxotrophy according to manufacturer's instructions ([…] two-hybrid system 3, Clontech). pGBKT7-SLC/CCL21 vector was generated by subcloning the BamHI SLC/CCL21 fragment from pGBT9-SLC (see example 1) into the unique BamHI cloning site of vector pGBKT7 (Clontech).

[4] = target: T3, human THAP1 (THanatos …); assay: yeast two-hybrid, pGADT7-THAP1 mutant with pGBKT7-THAP1 wild-type
Method: Two-hybrid interaction between THAP1 mutants and THAP1 wild type was tested by cotransformation of AH109 with pGADT7-THAP1-C1, -C2, -C3, -N1, -N2 or -N3 and pGBKT7-THAP1 wild-type and selection of transformants by His and Ade double auxotrophy according to manufacturer's instructions ([…] two-hybrid system 3, Clontech).

[5] = target: T3, human THAP1 (THanatos …); assay: yeast two-hybrid, pGADT7-THAP1 with pGBKT7-chemokine
Text: […]

Binder | binding result [2] | binding result [4] | other results
human chemokine I-TAC/CXCL11, mature form (amino acids 22-94) (ligand, The range is stated on the GenBank entry; Tested as a Gal4-BD fusion (pGBKT7-CXCL11) and as in vitro translated 35S-labelled protein from that vector) FPMFKRGRCLCIGPGVKAVKVADIEKASIMYPSNNCDKIEVIITLKENKGQRCLNPKSKQARLIIKKVERKNF | – | – | binding result [1]: no binding
3mut14 (dsDNA) DNA 1: AGCAAGTAAGGGCCAACTACTTCAT DNA 2: ATGAAGTAGTTGGCCCTTACTTGCT | no binding | – | –
3mut3 (dsDNA) DNA 1: AGCAAGTAAGGTCAAACTACTTCAT DNA 2: ATGAAGTAGTTTGACCTTACTTGCT | no binding | – | –
THAP1-C3 deletion mutant (amino acids 143-213) (other, Tested as a Gal4-BD or Gal4-AD fusion, as in vitro translated 35S-labelled protein and as an EGFP fusion) MHQRKRIHQLEQQVEKLRKKLKTAQQRCRRQERQLEKLKEVVHFQKEKDDVSERGYVILPNDYFEIVEVPA | – | binds | binding result [3]: binds
THAP1-C1 deletion mutant (amino acids 90-213) (other, Tested as a Gal4-BD or Gal4-AD fusion, as in vitro translated 35S-labelled protein and as an EGFP fusion; also called THAP1ΔTHAP; THAP1?THAP) KEDLLEPQEQLPPPPLPPPVSQVDAAIGLLMPPLQTPVNLSVFCDHNYTVEDTMHQRKRIHQLEQQVEKLRKKLKTAQQRCRRQERQLEKLKEVVHFQKEKDDVSERGYVILPNDYFEIVEVPA | – | binds | –
THAP1-N3 deletion mutant (amino acids 1-192) (other, Tested as a Gal4-BD or Gal4-AD fusion, as in vitro translated 35S-labelled protein and as an EGFP fusion) MVQSCSAYGCKNRYDKDKPVSFHKFPLTRPSLCKEWEAAVRRKNFKPTKYSSICSEHFTPDCFKRECNNKLLKENAVPTIFLCTEPHDKKEDLLEPQEQLPPPPLPPPVSQVDAAIGLLMPPLQTPVNLSVFCDHNYTVEDTMHQRKRIHQLEQQVEKLRKKLKTAQQRCRRQERQLEKLKEVVHFQKEKDD | – | binds | –
3mut5 (dsDNA) DNA 1: AGCAAGTAAGGGAAAACTACTTCAT DNA 2: ATGAAGTAGTTTTCCCTTACTTGCT | no binding | – | –
THAP1-C2 deletion mutant (amino acids 120-213) (other, Tested as a Gal4-BD or Gal4-AD fusion, as in vitro translated 35S-labelled protein and as an EGFP fusion) MPPLQTPVNLSVFCDHNYTVEDTMHQRKRIHQLEQQVEKLRKKLKTAQQRCRRQERQLEKLKEVVHFQKEKDDVSERGYVILPNDYFEIVEVPA | – | binds | binding result [3]: binds
human chemokine ELC/CCL19, mature form (amino acids 22-98) (ligand, The range is stated on the GenBank entry; Tested as a Gal4-BD fusion (pGBKT7-CCL19) and as in vitro translated 35S-labelled protein from that vector; also called MIP3b/CCL19) GTNDAEDCCLSVTQKPIPGYIVRNFHYLLIKDGCRVPAVVFTTLRGRQLCAPPDQPWVERIIQRLQRTSAKMKRRSS | – | – | binding result [5]: binds; binding result [1]: no binding
human chemokine MIG/CXCL9, mature form (amino acids 23-125) (ligand, The range is stated on the GenBank entry; Tested as a Gal4-BD fusion (pGBKT7-CXCL9) and as in vitro translated 35S-labelled protein from that vector) TPVVRKGRCSCISTNQGTIHLQSLKDLKQFAPSPSCEKIEIIATLKNGVQTCLNPDSADVKELIKKWEKQVSQKKKQKNGKKHQKKKVLKVRKSQRSRQKKTT | – | – | binding result [5]: binds; binding result [1]: no binding
3mut4 (dsDNA) DNA 1: AGCAAGTAAGTGCAAACTACTTCAT DNA 2: ATGAAGTAGTTTGCACTTACTTGCT | no binding | – | –
